Assay results published in patent US20100119506A1 (published 2010).
Substitutions are numbered along the chain they refer to.

How the values were obtained:
[1] = target: T1, PAR-2 peptide (SEQ ID NO:42) coupled to Transferrin as carrier (coupled to Transferrin as carrier); experiment: ELISA on peptide
T1 construct: Transferrin carrier not further described
T1 peptide: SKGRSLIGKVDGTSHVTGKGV

[2] = target: T2, PAR-1 peptide (SEQ ID NO:43); experiment: ELISA on peptide
T2 peptide: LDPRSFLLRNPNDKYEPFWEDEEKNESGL

[3] = target: T3, PAR-4 peptide (SEQ ID NO:44); experiment: ELISA on peptide
T3 peptide: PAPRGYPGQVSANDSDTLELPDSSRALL

Human PAR-2 on cells [4] = target: T4, Human PAR-2 on cells (human, UniProt P55085 26-397); experiment: cell-based or functional assay
T4 sequence: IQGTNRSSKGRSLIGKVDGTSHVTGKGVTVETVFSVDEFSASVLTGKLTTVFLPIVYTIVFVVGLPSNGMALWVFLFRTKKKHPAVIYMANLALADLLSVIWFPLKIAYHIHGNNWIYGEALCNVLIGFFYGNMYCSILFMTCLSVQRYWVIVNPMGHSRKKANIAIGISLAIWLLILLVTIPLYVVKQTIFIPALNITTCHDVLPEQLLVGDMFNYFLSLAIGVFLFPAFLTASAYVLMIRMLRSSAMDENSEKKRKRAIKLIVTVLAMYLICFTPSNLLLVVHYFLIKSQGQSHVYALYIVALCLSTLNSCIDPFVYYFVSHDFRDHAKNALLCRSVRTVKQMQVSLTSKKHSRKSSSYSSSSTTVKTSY

[5] = target: T5, FLAG-tagged PAR-2 over-expressed on HEK transfectants (Homo sapiens (Human), UniProt P55085 37-397); experiment: cell-based or functional assay
T5 sequence: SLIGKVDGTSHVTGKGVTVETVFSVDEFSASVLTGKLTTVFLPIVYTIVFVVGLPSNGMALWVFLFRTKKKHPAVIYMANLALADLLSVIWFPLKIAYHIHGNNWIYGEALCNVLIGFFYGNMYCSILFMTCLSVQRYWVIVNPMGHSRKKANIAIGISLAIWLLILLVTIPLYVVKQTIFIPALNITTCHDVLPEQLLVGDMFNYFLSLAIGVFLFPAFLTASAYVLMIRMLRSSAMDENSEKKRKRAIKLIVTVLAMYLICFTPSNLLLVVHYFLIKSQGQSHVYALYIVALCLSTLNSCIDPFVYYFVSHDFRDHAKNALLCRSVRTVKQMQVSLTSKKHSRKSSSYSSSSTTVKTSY

[6] = target: labeled peptide representing the N-terminus of PAR-2 (FRET assay); experiment: cell-based or functional assay
Human PAR-2 on cells [7] = target: T4, Human PAR-2 on cells; experiment: cell binding of IgG4_Pro, HEK-PAR-2 (#3)
Human PAR-2 on cells [8] = target: T4, Human PAR-2 on cells; experiment: binding of IgG4p to PAR-2 transfected HEK cells (HEK-PAR-2 #3)
Human PAR-2 on cells [9] = target: T4, Human PAR-2 on cells; experiment: cell-based or functional assay; remark: listed apart in the source
[10] = target: T6, Mouse PAR-2 (endogenous, LLC cells and mouse aortic rings) (mouse, UniProt P55086 39-399); experiment: cell-based or functional assay
T6 sequence (looked up): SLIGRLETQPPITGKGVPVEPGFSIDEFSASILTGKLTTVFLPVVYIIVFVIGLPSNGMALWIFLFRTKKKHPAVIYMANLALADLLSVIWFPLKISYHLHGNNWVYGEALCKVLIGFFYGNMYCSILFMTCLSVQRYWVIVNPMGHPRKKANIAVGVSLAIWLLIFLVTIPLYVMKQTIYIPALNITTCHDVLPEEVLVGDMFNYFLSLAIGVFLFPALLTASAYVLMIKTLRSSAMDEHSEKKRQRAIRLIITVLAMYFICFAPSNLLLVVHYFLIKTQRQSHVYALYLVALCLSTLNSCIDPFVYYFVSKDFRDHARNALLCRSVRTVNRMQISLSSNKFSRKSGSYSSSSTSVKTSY

[11] = target: T7, Rat PAR-2 (endogenous, ARIP cells and rat aortic rings) (rat, UniProt Q63645 37-397); experiment: cell-based or functional assay
T7 sequence (looked up): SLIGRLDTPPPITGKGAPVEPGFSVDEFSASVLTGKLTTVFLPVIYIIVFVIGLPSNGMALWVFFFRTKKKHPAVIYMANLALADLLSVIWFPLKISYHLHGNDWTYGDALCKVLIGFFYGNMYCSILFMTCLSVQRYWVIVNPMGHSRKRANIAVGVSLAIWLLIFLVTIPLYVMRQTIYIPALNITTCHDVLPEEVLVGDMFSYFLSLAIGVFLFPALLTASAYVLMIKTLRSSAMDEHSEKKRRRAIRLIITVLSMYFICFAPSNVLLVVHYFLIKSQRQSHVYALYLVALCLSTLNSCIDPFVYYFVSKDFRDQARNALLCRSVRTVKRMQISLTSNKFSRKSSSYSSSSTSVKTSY

[12] = target: T8, Human PAR-2 peptide (SEQ ID NO:1, Residues 33-54) (human); experiment: Kinexa, peptide in solution
T8 peptide: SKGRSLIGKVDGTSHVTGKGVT
Description: (§1) Binding to peptide in solution was determined by Kinexa technology.

Murine PAR-2 peptide [13] = target: T9, Murine PAR-2 peptide (murine); experiment: Kinexa, peptide in solution
T9 construct: also called mouse PAR-2 peptide
T9 peptide: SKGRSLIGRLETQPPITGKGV
Description: as §1

Rat PAR-2 peptide [14] = target: T10, Rat PAR-2 peptide (rat); experiment: Kinexa, peptide in solution
T10 peptide: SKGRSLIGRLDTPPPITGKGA
Description: as §1

Cynomolgus PAR-2 peptide = target: T11, Cynomolgus PAR-2 peptide (cynomolgus); experiment: Kinexa, peptide in solution
T11 peptide: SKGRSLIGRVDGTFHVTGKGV
Description: as §1

Rat PAR-2 peptide [15] = target: T10, Rat PAR-2 peptide; experiment: Rat PAR-2 Peptide Binding (Kinexa)
Description: as §1

Murine PAR-2 peptide [16] = target: T9, Murine PAR-2 peptide; experiment: Mouse PAR-2 Peptide Binding (Kinexa)
Description: as §1

Human PAR-2 on cells [17] = target: T4, Human PAR-2 on cells; experiment: binding to human PAR-2 transfected HEK293 cells
Human PAR-2 on cells [18] = target: T4, Human PAR-2 on cells; experiment: cell binding, Fab against IgG4p of the same clone
Human PAR-2 on cells [19] = target: T4, Human PAR-2 on cells; experiment: binding of Fab to PAR-2 transfected HEK cells (HEK-PAR-2 #3)

B1: Ab4999 IgG4_Pro (antibody, V domains shown)
VH: QVQLVESGGGLVQPGGSLRLSCAASGFTFSSYAMNWVRQAPGKGLEWVSTISYSSSATSYADSVKGRFTISRDNSKNTLYLQMNSLRAEDTAVYYCARIQNDPMDVWGQGTLVTVSS
VL: DIELTQPPSVSVAPGQTARISCSGDNLGKKYVQWYQQKPGQAPVLVIYDDSNRPSGIPERFSGSNSGNTATLTISGTQAEDEADYYCQTWDYSSIRDETNVFGGGTKLTVLG
notes: IgG4_Pro (human IgG4 constant regions, Ser241Pro hinge), lambda; also called IgG4p Ab4999
binding result [1]: binds
binding result [2]: no binding
binding result [3]: no binding
FLIPR A549 cells IC50 (Human PAR-2 on cells [4]): 3.1 nM
FLAG Cell-Based Cleavage Approx. IC50 [5]: < 1 nM
FRET Peptide Cleavage IC50 [6]: < 30 nM
EC50 (Human PAR-2 on cells [7]): 0.2 nM
EC50 (Human PAR-2 on cells [8]): 0.2 nM

B2: Antibody Par-B (antibody, V domains shown)
VH: B1 VH with Q3E
VL: B1 VL
notes: Codon-optimized version of Ab4999 made in CHO-DG44
Human Keratinocyte/IL-8 assay IC50 (Human PAR-2 on cells [9]): ~100 nM
Mouse Aortic Ring Assay, shift of EC50 (Trypsin) [10]: ~5 fold
Mouse Cell Line FLIPR IC50 [10]: ~0.4 nM
Rat Aortic Ring Assay, shift of EC50 (Trypsin) [11]: ~8 fold
Kd [12]: 0.08 nM
Kd (Murine PAR-2 peptide [13]): 0.08 nM
Kd (Rat PAR-2 peptide [14]): 0.02 nM
Kd (Cynomolgus PAR-2 peptide): 0.04 nM
Kd (Rat PAR-2 peptide [15]): 0.02 nM
fold vs. human peptide (Rat PAR-2 peptide [15]): 4 fold
Kd (Murine PAR-2 peptide [16]): 0.08 nM
fold vs. human peptide (Murine PAR-2 peptide [16]): 1 fold
EC50 (Human PAR-2 on cells [17]): ~0.3 nM

B3: Ab4999 Fab (Fab, V domains shown)
VH: B1 VH with Q3E
VL: B1 VL
notes: Fab
Ratio of EC50 Fab / EC50 IgG (Human PAR-2 on cells [18]): 0.3
EC50 (Human PAR-2 on cells [19]): 0.06 nM

B4: Antibody Par-C (antibody, V domains shown)
VH: B1 VH with Q3E, T50A, Y53F, S55G, S56H, A57L, S59G
VL: B1 VL
notes: Codon-optimized version of Ab5151
Kd [12]: 0.03 nM
Kd (Murine PAR-2 peptide [13]): 0.03 nM

B5: Ab5151 IgG4_Pro (cross-cloned: light chain of Ab4999 with heavy chain of Ab5007) (antibody, V domains shown)
VH: B1 VH with T50A, Y53F, S55G, S56H, A57L, S59G
VL: B1 VL
notes: IgG4_Pro format
binding result [1]: binds
binding result [2]: no binding
binding result [3]: no binding
FLIPR A549 cells IC50 (Human PAR-2 on cells [4]): 4 nM
FLAG Cell-Based Cleavage Approx. IC50 [5]: < 1 nM
FRET Peptide Cleavage IC50 [6]: < 30 nM
EC50 (Human PAR-2 on cells [7]): 0.4 nM

B6: Ab4996 IgG4_Pro (antibody, V domains shown)
VH: QVQLVESGGGLVQPGGSLRLSCAASGFTFSNHAMHWVRQAPGKGLEWVSAISHPGKFTYYADSVKGRFTISRDNSKNTLYLQMNSLRAEDTAVYYCARHGDGMDYFDFWGQGTLVTVSS
VL: DIELTQPPSVSVAPGQTARISCSGDNIGTKYVYWYQQKPGQAPVLVIYDDNNRPSGIPERFSGSNSGNTATLTISGTQAEDEADYYCQSYDSQTMVFGGGTKLTVLG
notes: IgG4_Pro (human IgG4 constant regions, Ser241Pro hinge), lambda; also called IgG4p Ab4996
binding result [1]: binds
binding result [3]: no binding
FRET Peptide Cleavage IC50 [6]: < 30 nM

B7: Antibody Par-D (antibody, V domains shown)
VH: B6 VH with Q3E
VL: B6 VL
notes: Codon-optimized version of Ab4996
Kd (Murine PAR-2 peptide [13]): 0.42 nM
Kd (Rat PAR-2 peptide [14]): 0.04 nM
Kd (Cynomolgus PAR-2 peptide): 0.14 nM
Kd (Rat PAR-2 peptide [15]): 0.04 nM
Kd (Murine PAR-2 peptide [16]): 0.42 nM
